Source: PMC3049835 (Analytical biochemistry, 2011)

B1: SphK2 (Homo sapiens) (protein)
chain: MNGHLEAEEQQDQRPDQELTGSWGHGPRSTLVRAKAMAPPPPPLAASTPLLHGEFGSYPARGPRFALTLTSQALHIQRLRPKPEARPRGGLVPLAEVSGCCTLRSRSPSDSAAYFCIYTYPRGRRGARRRATRTFRADGAATYEENRAEAQRWATALTCLLRGLPLPGDGEITPDLLPRPPRLLLLVNPFGGRGLAWQWCKNHVLPMISEAGLSFNLIQTERQNHARELVQGLSLSEWDGIVTVSGDGLLHEVLNGLLDRPDWEEAVKMPVGILPCGSGNALAGAVNQHGGFEPALGLDLLLNCSLLLCRGGGHPLDLLSVTLASGSRCFSFLSVAWGFVSDVDIQSERFRALGSARFTLGTVLGLATLHTYRGRLSYLPATVEPASPTPAHSLPRAKSELTLTPDPAPPMAHSPLHRSVSDLPLPLPQPALASPGSPEPLPILSLNGGGPELAGDWGGAGDAPLSPDPLLSSPPGSPKAALHSPVSEGAPVIPPSSGLPLPTPDARVGASTCGPPDHLLPPLGTPLPPDWVTLEGDFVLMLAISPSHLGADLVAAPHARFDDGLVHLCWVRSGISRAALLRLFLAMERGSHFSLGCPQLGYAAARAFRLEPLTPRGVLTVDGEQVEYGPLQAQMHPGIGTLLTGPPGCPGREP
B2: SphK1 (Homo sapiens) (protein)
chain: MSAQVLGFLRSWTPLPLAAPRGPAAAGNDAGAPAATAPGGEGEPHSRPCDARLGSTDKELKAGAAATGSAPTAPGTPWQREPRVEVMDPAGGPRGVLPRPCRVLVLLNPRGGKGKALQLFRSHVQPLLAEAEISFTLMLTERRNHARELVRSEELGRWDALVVMSGDGLMHEVVNGLMERPDWETAIQKPLCSLPAGSGNALAASLNHYAGYEQVTNEDLLTNCTLLLCRRLLSPMNLLSLHTASGLRLFSVLSLAWGFIADVDLESEKYRRLGEMRFTLGTFLRLAALRTYRGRLAYLPVGRVGSKTPASPVVVQQGPVDAHLVPLEEPVPSHWTVVPDEDFVLVLALLHSHLGSEMFAAPMGRCAAGVMHLFYVRAGVSRAMLLRLFLAMEKGRHMEYECPYLVYVPVVAFRLEPKDGKGVFAVDGELMVSEAVQGQVHPNYFWMVSGCVEPPPSWKPQQMPPPEEPL

What was measured:
[1] = molecular target: SphK1 (Homo sapiens, UniProt Q9NYA1); conditions: read-out: Km with respect to sphingosine, SphK1, previously reported; cited from earlier work
[2] = substrate: CCCCCCCCc1ccc(CCC(N)(CO)CO)cc1; test: 96-well FlashPlate SphK assay, SphK2; type: biochemical; conditions: other: FlashPlate; FTY720 as selective SphK2 substrate; 37.0 °C
[3] = substrate: CCCCCCCCCCCCC/C=C/[C@@H](O)[C@@H](N)CO; test: 96-well FlashPlate SphK assay, SphK2; type: biochemical; conditions: other: FlashPlate; ATP fixed at 250 μM, sphingosine 0–50 μM; 37.0 °C
[4] = substrate: Nc1ncnc2c1ncn2[C@@H]1O[C@H](COP(=O)(O)OP(=O)(O)OP(=O)(O)O)[C@@H](O)[C@H]1O; test: purified protein, by the assay type; conditions: other: FlashPlate; 5–10 μM sphingosine, ATP 0–600 μM; 37.0 °C

Molecule	Km [1]	Km [2]	Km [3]	Km [4]
CCCCCCCCCCCCC/C=C/[C@@H](O)[C@@H](N)CO [sphingosine, D-erythro-sphingosine]	5 to 17 µM			
B1		22 µM	6 µM	79 µM
B2				125 µM
